Reference: patent US20230272055A1 (Incyte, published 2023)
Where a chain is given by its changes, count along the chain named.

T1: human mutCALR on BaF3 cells stably expressing human MPL and human mutCALR (MPL-mutCALR cells) (human)
T1 construct: also called mutant calreticulin
T1 chain: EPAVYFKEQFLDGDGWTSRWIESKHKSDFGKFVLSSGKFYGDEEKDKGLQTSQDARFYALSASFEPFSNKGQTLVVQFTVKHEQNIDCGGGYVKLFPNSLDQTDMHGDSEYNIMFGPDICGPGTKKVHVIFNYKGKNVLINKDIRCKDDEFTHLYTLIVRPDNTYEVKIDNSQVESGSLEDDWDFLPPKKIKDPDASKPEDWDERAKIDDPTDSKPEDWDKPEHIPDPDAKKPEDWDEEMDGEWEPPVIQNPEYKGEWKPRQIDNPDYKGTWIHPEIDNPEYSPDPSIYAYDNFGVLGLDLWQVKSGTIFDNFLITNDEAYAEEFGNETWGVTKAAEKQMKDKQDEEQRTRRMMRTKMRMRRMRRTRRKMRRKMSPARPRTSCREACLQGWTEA

T2: human Type 1 mutCALR on Ba/F3 cells expressing MPL and Type 1 mutCALR (human)
T2 chain: T1 chain

B1: anti-mutCALR antibody clone 6 (antibody, human IgG1, lambda)
heavy: not shown
light: QSALTQPASVSGSPGQSITISCTGTSSDVGGYNYVSWYQQHPGKAPKLMIYEVSNRPSGVSNRFSGSNSGNTATLTINRVEAGDEADYYCQVWDSSNDLLIFGGGTKLTVLGQPKAAPSVTLFPPSSEELQANKATLVCLISDFYPGAVTVAWKADSSPVKAGVETTTPSKQSNNKYAASSYLSLTPEQWKSHRSYSCQVTHEGSTVEKTVAPTECS
notes: human IgG1
B2: anti-mutCALR antibody clone 40 (antibody, human IgG1, lambda, V domains shown)
VH: EVQLVQSGAEVKKPGASVKVSCKVSGYTLTESSMHWVRQAPGKGLEWMGLVDPEDGETIYAQKFQGRVTMTEDTSTDTAYMELSSLRSEDTAVYYCAREEWSGDGDDAFDIWGQGTMVTVSS
VL: QSVLTQPPSVSAAPGQKVTISCSGSSSNIGSYSVSWYQQLPGTAPKLLIYDNNKRPSGIPDRFSGSNSGTSATLGITGLQTGDEADYYCGTWDSSLSAWVFGGGTKLTVLG
notes: human IgG1
B3: anti-mutCALR antibody clone 51 (antibody, human IgG1, lambda, V domains shown)
VH: EVQLVQSGAEVKKPGSSVKVSCKASGGTFSSYAISWVRQAPGQGLEWMGGIIPIFGTANYAQKFQGRVTITADESTSTAYMELSSLRSEDTAVYYCASSPLRGSGWYWHYYYGMDVWGQGTTVTVSS
VL: SYELTQPPSVSVAPGKTARITCGGNKIGTKSVHWYQQKPGQAPVLVIYQDSKRPSGIPERFSGSNSGNTATLTISGTQAMDEADYYCQAWGSSTVVFGGGTKLTVLG
notes: human IgG1
B4: anti-mutCALR antibody clone 53 (antibody, human IgG1, lambda, V domains shown)
VH: QVQLVQSGAEVKKPGASVKVSCKVSGYTLTELSMHWVRQAPGKGLEWMGGFDPEDGETIYAQKFQGRVTMTEDTSTDTAYMELSSLRSEDTAVYYCATDIQGLAEFDYWGQGTLVTVSS
VL: QSALTQPRSVSGSPGQSVTISCTGTNTDVGAYIDVSWYQQHPGKAPKLIIYDVSKWPSGVPDRFSGSKSGNTASLTISGLQAEDEADYYCCSYAGNHSFSFGGGTKVTVLG
notes: human IgG1
B5: anti-mutCALR antibody clone 15 (antibody, human IgG1, lambda)
heavy: not shown
light: SYELTQPPSVSVAPGKTARITCGGDNIGSKSVHWYQQKPGQAPVLVVYDDSDRPSGIPERFSGSNSGNTATLTINRVEAGDEADYYCQVWDSSNDLLIFGGGTKLTVLGQPKAAPSVTLFPPSSEELQANKATLVCLISDFYPGAVTVAWKADSSPVKAGVETTTPSKQSNNKYAASSYLSLTPEQWKSHRSYSCQVTHEGSTVEKTVAPTECS
notes: human IgG1
B6: anti-mutCALR antibody clone 17 (antibody, human IgG1, lambda)
heavy: not shown
light: SYVLTQPPSVSVAPGQTARITCGGSDIGDEIVHWYQQKPGQAPVLVVYDDSDRPSGIPERFSGSNSGNTATLTISRAQAGDEADYYCQVWDSSSDHLIFGGGTKLTVLGQPKAAPSVTLFPPSSEELQANKATLVCLISDFYPGAVTVAWKADSSPVKAGVETTTPSKQSNNKYAASSYLSLTPEQWKSHRSYSCQVTHEGSTVEKTVAPTECS
notes: human IgG1
B7: anti-mutCALR antibody clone 32 (antibody, human IgG1, lambda, V domains shown)
VH: QVQLVQSGAEVKKPGATVKISCKVSGYSFTDYFIHWVQQAPGKGLAWVGLVDPEDGETIYAEKFQGRVTITADTSTDTAYMELSSLRSEDTAVYYCATPGGILTDPDAFDIWGQGTMVTVSS
VL: QSALTQPASVSGSPGQSITISCTGTSSDVGGYNYVSWYQQHPGKAPKLMIYEVSNRPSGVSNRFSGSKSGNTASLTISGLQAEDEADYYCSSYTSSSTPYVFGTGTKVTVLG
notes: human IgG1
B8: anti-mutCALR antibody clone 36 (antibody, human IgG1, lambda, V domains shown)
VH: B7 VH
VL: QSALTQPRSVSGSPGQSVTISCAGTGSDVGGYNYVSWYQHHPGKAPKLMIYDVNKRPSGVPDRFSGSKSGNTASLTISGLQAEDEADYYCSSYTSSSTFYVFGTGTKVTVLG
notes: human IgG1
B9: anti-mutCALR antibody clone 1 (antibody, human IgG1, lambda, V domains shown)
VH: EVQLVQSGAEVKKPGASVKVSCKVSGYTLTELSMQWVRQAPGKGLEWMGGFDPDDGETMYAEKFQGRLTVTEDTSTDTVYMELRSLTSEDTALYFCATSPGYDFFDYWGQGTLVTVSS
VL: SYVLTQPPSVSVAPGKTARITCGGNYIGSKSVHWYQQKPGQAPVLVVYDDGDRPSGIPARFSGSNSGNTATLTISRVEAGDEADYYCQVWDSISDHVVFGGGTKLTVLG
notes: human IgG1
B10: anti-mutCALR antibody clone 2 (antibody, human IgG1, lambda, V domains shown)
VH: B9 VH
VL: B9 VL with V3E, N25D, Y26N, G51S, A59E, I93S, S94I, V97L, V98I, L105V
notes: human IgG1
B11: anti-mutCALR antibody clone 4 (antibody, human IgG1, lambda, V domains shown)
VH: B9 VH
VL: B9 VL with K16Q, Y26N, G51S, A59E, S75N, I93S, S94N, H96L, V97L, V98I
notes: human IgG1
B12: anti-mutCALR antibody clone 3 (antibody, human IgG1, lambda, V domains shown)
VH: B9 VH with K63R
VL: B9 VL with K16Q, Y26N, G51S, A59E, S75N, I93S, S94N, H96L, V97L, V98I
notes: human IgG1
B13: anti-mutCALR antibody clone 7 (antibody, human IgG1, lambda, V domains shown)
VH: B9 VH
VL: SYVLTQPPSVSVAPGQTASITCVGTNFGSKNVHWYQQRPGQAPVLVVYDDSDRPSGIPERFSGSNSGNTATLTINRVEAGDEADYYCQVWDSSNDLLIFGGGTKLTVLG
notes: human IgG1
B14: anti-mutCALR antibody clone 5 (antibody, human IgG1, lambda, V domains shown)
VH: B9 VH
VL: B13 VL with N75S, N94S, L96H
notes: human IgG1
B15: anti-mutCALR antibody clone 44 (antibody, human IgG1, lambda, V domains shown)
VH: B3 VH
VL: B3 VL with E3V, V12A, T21S, K26N, G28R, T29S, P39A, G91D, S93N
B16: anti-mutCALR antibody clone 46 (antibody, human IgG1, lambda, V domains shown)
VH: B3 VH with E1Q
VL: B3 VL with K26N, G28R, T29S, I47V, A89V, G91D, V95A
B17: anti-mutCALR antibody clone 47 (antibody, human IgG1, lambda, V domains shown)
VH: B3 VH
VL: B3 VL with Q49R, K52N, G76R, T77A, M80G, A89V, G91D
B18: anti-mutCALR antibody clone 52 (antibody, human IgG1, kappa, V domains shown)
VH: EVQLVQSGAEVKKPGASVKVSCKVSGYTLTELSMHWVRQAPGKGLEWMGLVDPEDGETIYAEKFQGRVTITADTSTDTAYMELSSPRSEDTAVYYCATTIGDDYFDYWGQGTLVTVSS
VL: not shown
notes: human IgG1
B19: anti-mutCALR antibody clone 34 (antibody, human IgG1, lambda, V domains shown)
VH: B7 VH
VL: QSALTQPASVSGSPGQSITISCTGTSSDVGGYNYVSWYQQHPGKAPKLMIYEVSNRPSGVSNRFSGSKSGNTASLTISGLQAEDEADYYCSSYTSSSTYVFGTGTKVTVLG
notes: human IgG1

molecular target: T3, Recombinant MBP-mutCALR Type 1 fusion protein (human); experiment: SPR, IgG captured, 1:1 fit, Exp. 2
T3 construct: custom made at Cepter; also called recombinant mutCALR protein
Procedure, shortened: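 Antibodies captured via amine-coupled anti-human IgG (Fc) on a CM4 chip; recombinant MBP-mutCALR Type 1 fusion protein as analyte. Run at 25 °C in Tris-buffered saline pH 7.2, 0.005% P20, 1 mM CaCl₂. Multiple-cycle kinetics fitted to a 1:1 binding model.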

Binder | Kd | koff | kon
B1 | 0.538 nM | 0.00123 s⁻¹ | 2.29e+06 M⁻¹ s⁻¹
B2 | 0.352 nM | 0.00121 s⁻¹ | 3.44e+06 M⁻¹ s⁻¹
B3 | 0.823 nM | 0.000524 s⁻¹ | 636000 M⁻¹ s⁻¹
B4 | 17 nM | 0.108 s⁻¹ | 6.36e+06 M⁻¹ s⁻¹
B5 | 1.02 nM | 0.00249 s⁻¹ | 2.44e+06 M⁻¹ s⁻¹
B6 | 0.249 nM | 0.00127 s⁻¹ | 5.12e+06 M⁻¹ s⁻¹
B7 | 1.71 nM | 0.00314 s⁻¹ | 1.84e+06 M⁻¹ s⁻¹
B8 | 1.22 nM | 0.00166 s⁻¹ | 1.36e+06 M⁻¹ s⁻¹

Molecular target: T1, human mutCALR on BaF3 cells stably …
Experiment: flow cytometry, BaF3 MPL-mutCALR cells
Procedure: On the day of the assay, cells were washed and resuspended in assay buffer. Approximately 200,000 cells/well were added to 96-well plates and stained with the indicated concentration of antibodies for 30 minutes on ice. Cells were then washed and stained with goat anti-human secondary conjugated to R-phycoerythrin (R-PE) (Jackson Immuno Research Laboratories) for 30 minutes on ice. The cells were then washed and analyzed by flow cytometry.

Binder | EC50 | MPL-mutCALR AUC
B9 | 0.01 µg/mL | 52800
B10 | 0.01 µg/mL | 60400
B11 | – | 74000
B12 | – | 102000
B13 | 0.19 µg/mL | 66800
B14 | 0.09 µg/mL | 57100

Molecular target: T2, human Type 1 mutCALR on Ba/F3 cells …
Experiment: cell-based or functional assay

Binder | IC50, inhibition of pSTAT5
B15 | 7 µg/mL
B16 | 3.9 µg/mL
B17 | 10 µg/mL
B9 | 0.47 µg/mL
B10 | 0.12 µg/mL
B11 | 0.04 µg/mL
B12 | 0.021 µg/mL
B13 | 0.049 µg/mL
B14 | 0.03 µg/mL

molecular target: T3, Recombinant MBP-mutCALR Type 1 fusion …; experiment: SPR, IgG captured, 1:1 fit, Exp. 1
Procedure: Experiment 1: Recombinant MBP-mutCALR Type 1 fusion protein was custom made at Cepter (cepterbiopartners.com). Data for the interaction of antibodies with recombinant MBP-mutCALR Type 1 fusion protein were collected at 25° C. on a Biacore 8K instrument (Cytiva, Marlborough, Mass.), and all reagents were obtained from Cytiva unless otherwise specified. The experiments were conducted using Tris-buffered saline (pH 7.2), 0.005% Surfactant P20, 1 mM CaCl₂) as running buffer. To prepare the capture surfaces, anti-human IgG (Fc) antibodies (Product #29234600) was amine-coupled onto a CM4 chip (Product #BR100534) under standard conditions using an Amine Coupling Kit (Product #BR100050). […] The kinetics parameters were obtained by applying 1:1 binding model to fit the data from multiple-cycle injection experiments using Biacore Insight Evaluation software.

Binder | Kd | koff | kon
B1 | 2.57 nM | 0.00153 s⁻¹ | 597000 M⁻¹ s⁻¹
B18 | 1.76 nM | – | –
B2 | 1.04 nM | 0.00538 s⁻¹ | 5.17e+06 M⁻¹ s⁻¹
B3 | 4.64 nM | 0.00109 s⁻¹ | 235000 M⁻¹ s⁻¹
B4 | 10.2 nM | 0.00235 s⁻¹ | 229000 M⁻¹ s⁻¹
B5 | 6.03 nM | 0.215 s⁻¹ | 3.57e+07 M⁻¹ s⁻¹
B6 | 2.22 nM | 0.00347 s⁻¹ | 1.56e+06 M⁻¹ s⁻¹
B7 | 5.63 nM | 0.00768 s⁻¹ | 1.36e+06 M⁻¹ s⁻¹
B19 | 2.56 nM | 0.00581 s⁻¹ | 2.27e+06 M⁻¹ s⁻¹
B8 | 2.95 nM | 0.00205 s⁻¹ | 695000 M⁻¹ s⁻¹
